This is an account of results in the supplement of paper PMC10567573.

± gives the standard deviation.

The nature of this series: protein stability index of a GFP-peptide fusion (GPS, HEK-293T) (PSI 1-6); higher = more stable. The following applies: c terminus: a fixed tail appended.
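Note: 24-mer peptide tiles fused after GFP, lentivirally expressed, FACS-sorted into six equal bins by GFP/DsRed ratio, decoded by Illumina sequencing, PSI is the read-weighted mean bin number.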

Regarding KTPLHQKHAAFVTPDQKYSMDNTP [MYBL2], the protein stability index reads like this: (treatment: DMSO) 4.14 ± 0.38; (treatment: MLN4924 1 uM, 8 h) 4.23 ± 0.2.

As to DSAKREVKQKISPYFKSNDVVCKN [FAN1], the protein stability index worked out at 3.95 ± 0.35 (treatment: DMSO) and 4 ± 0.31 (treatment: MLN4924 1 uM, 8 h).

Regarding ALVVPKGNTAVSVLMLLVALLFTG [SCAMP3], the protein stability index runs as follows: (treatment: DMSO) 2.98 ± 0.75; (treatment: MLN4924 1 uM, 8 h) 2.62 ± 0.45.

Regarding YGGRSVAPQNSFSAKLAPHYFHSI [KCNK9], the protein stability index reads like this: (treatment: DMSO) 2.23 ± 0.11; (treatment: MLN4924 1 uM, 8 h) 2.3 ± 0.3.

Consider VLYLMMPIVNISEVLGPLCLMLLM [PHTF1], for which the protein stability index is, setting by setting: (treatment: DMSO) 3.07 ± 0.62; (treatment: MLN4924 1 uM, 8 h) 2.67 ± 0.47.

For the sequence EETVTMLEDVERELDGPKQIFFGR [ZNF396], the protein stability index runs as follows: (treatment: DMSO) 4.5 ± 0.14; (treatment: MLN4924 1 uM, 8 h) 4.49 ± 0.26.

On to SESETSTMAAKKNRQSSDKQNGRV [C18orf25], for which the protein stability index (treatment: DMSO) worked out at 5.35 ± 0.17 and the protein stability index (treatment: MLN4924 1 uM, 8 h) is 5.16 ± 0.17.

Regarding AVPTDEARAFAEKNGLSFIETSAL [RAB11A], the protein stability index is, setting by setting: (treatment: DMSO) 2.9 ± 0.34; (treatment: MLN4924 1 uM, 8 h) 3.37 ± 0.52.

On to DPNTAAGWLSVSDDLTSVTNHGYR [TRIM35], for which the protein stability index (treatment: DMSO) stood at 4.32 ± 0.15 and the protein stability index (treatment: MLN4924 1 uM, 8 h) was determined as 4.31 ± 0.13.

Take RPQHSHSNKKRPSLDGRDPGNGTH [ELOA2]: the protein stability index is, setting by setting: (treatment: DMSO) 4.94 ± 0.44; (treatment: MLN4924 1 uM, 8 h) 4.82 ± 0.39.

Consider TAKNSRVVCGMFGFPGERTYNTKV [LOXL2], for which the protein stability index (treatment: DMSO) was found to be 2.6 ± 0.3 and the protein stability index (treatment: MLN4924 1 uM, 8 h) was 2.63 ± 0.067.

As for EEERDEEEDKRRKGEEVTPISAIR [EPB41L3], the protein stability index worked out at 5.59 ± 0.28 (treatment: DMSO) and 5.66 ± 0.21 (treatment: MLN4924 1 uM, 8 h).

For the sequence LDVRARLECEINTYRSLLESEDCK [KRT33B], the protein stability index reads like this: (treatment: DMSO) 4.23 ± 0.16; (treatment: MLN4924 1 uM, 8 h) 4.38 ± 0.25.

Take PESDILQPVPNTTEPDYKSKDWVF [STK38L]: the protein stability index (treatment: DMSO) worked out at 4.45 ± 0.32 and the protein stability index (treatment: MLN4924 1 uM, 8 h) came to 4.55 ± 0.19.

Take GGLATGIAGGLAGMGGIQNEKETM [KRT18]: the protein stability index (treatment: DMSO) was 4.95 ± 0.33 and the protein stability index (treatment: MLN4924 1 uM, 8 h) is 4.58 ± 0.39.

Regarding VLENNLEAVARHMLIFSLALEEPE [DNAAF3], the protein stability index (treatment: DMSO) turned out to be 2.74 ± 1.1 and the protein stability index (treatment: MLN4924 1 uM, 8 h) was 2.52 ± 0.37.

EKKLFECLTCGKSFRQGMHLTRHQ [ZNF263] came in with a protein stability index (treatment: DMSO) of 2.1 ± 0.41 and a protein stability index (treatment: MLN4924 1 uM, 8 h) of 2.27 ± 0.19.

As to TQIGFADLMGVLTKGVREVERALQ [FEM1A], the protein stability index was 2.29 ± 0.61 (treatment: DMSO) and 2.28 ± 0.45 (treatment: MLN4924 1 uM, 8 h).

Turning to QHLKYKEHPEALSCLLLQLRREKP [INTS3], the protein stability index stood at 2.68 ± 0.16 (treatment: DMSO) and 3 ± 0.32 (treatment: MLN4924 1 uM, 8 h).

With LTKDEAAAHLKLTSIEEGYERSFI [IQUB], the protein stability index is, setting by setting: (treatment: DMSO) 3.58 ± 0.39; (treatment: MLN4924 1 uM, 8 h) 3.43 ± 0.16.

In turn, HHHGRSRPDRSSQGGSLPSEEKGH [CHGB] had a protein stability index (treatment: DMSO) of 5.34 ± 0.06 and a protein stability index (treatment: MLN4924 1 uM, 8 h) of 5.31 ± 0.083.

For the sequence PAVDLNQVLNETRNQYEALVETNR [KRT33B], the protein stability index by setting is: (treatment: DMSO) 3.39 ± 0.36; (treatment: MLN4924 1 uM, 8 h) 3.87 ± 0.74.

For NWEAPPGAFDSFLLRFGVPSPSTL [TNXB], the protein stability index is, setting by setting: (treatment: DMSO) 3.06 ± 0.37; (treatment: MLN4924 1 uM, 8 h) 2.85 ± 0.28.

For DDVLPWRRTAENKLDTKYPYVCHA [DCTD], the protein stability index (treatment: DMSO) was determined as 3.331 ± 0.026 and the protein stability index (treatment: MLN4924 1 uM, 8 h) stood at 3.31 ± 0.39.

In the case of EHDFLDRDAIEALCRRLNTLNKCA [DLC1], the protein stability index runs as follows: (treatment: DMSO) 2.73 ± 0.36; (treatment: MLN4924 1 uM, 8 h) 2.73 ± 0.49.

As for LALKTPPRVLTLSERPLDFLDLER [MFF], the protein stability index is, setting by setting: (treatment: DMSO) 2.96 ± 0.45; (treatment: MLN4924 1 uM, 8 h) 3.1 ± 0.21.

For the sequence KVEEEIVTLRQVLAAKERHCGELK [TPD52L2], the protein stability index by setting is: (treatment: DMSO) 3.95 ± 0.3; (treatment: MLN4924 1 uM, 8 h) 4.21 ± 0.14.

SPEQQFDRSVQRLLATRIAVYLMT [TMEM175]: the protein stability index was found to be 2.31 ± 0.51 (treatment: DMSO) and 2.43 ± 0.66 (treatment: MLN4924 1 uM, 8 h).

On to LSELLRYHTSQSGDEMTSLSEYVS [HSP90AB1], for which the protein stability index by setting is: (treatment: DMSO) 3.27 ± 0.23; (treatment: MLN4924 1 uM, 8 h) 3.6 ± 0.21.

Consider QQVCQWLLWATNEFSLVNVNLQRF [ETS2], for which the protein stability index was 3.01 ± 0.23 (treatment: DMSO) and 2.94 ± 0.42 (treatment: MLN4924 1 uM, 8 h).

For the sequence PLLLRLPRICQRNLMSLLMAVRPS [FANCE], the protein stability index amounted to 2.45 ± 0.34 (treatment: DMSO) and 2.56 ± 0.062 (treatment: MLN4924 1 uM, 8 h).

As for DSAQMQNGGPSTPPASPPADGSPP [ANKRD40], the protein stability index (treatment: DMSO) is 5.24 ± 0.49 and the protein stability index (treatment: MLN4924 1 uM, 8 h) is 5.23 ± 0.19.

As to LICAISHTHRAHTVVPLDDATQEY [TRIM39], the protein stability index runs as follows: (treatment: DMSO) 2.59 ± 0.19; (treatment: MLN4924 1 uM, 8 h) 2.51 ± 0.38.

Consider RALKFRERDALEAVFRFWAGGEKG [DNAAF3], for which the protein stability index is, setting by setting: (treatment: DMSO) 2.32 ± 0.07; (treatment: MLN4924 1 uM, 8 h) 2.59 ± 0.43.

The sequence WAANAGVTASPPTDLIWKNQNSWG [LMNB1] came in with a protein stability index (treatment: DMSO) of 2.46 ± 0.26 and a protein stability index (treatment: MLN4924 1 uM, 8 h) of 2.48 ± 0.5.

LPDPREACGSSSYVASIVDGGESR [RBMY1A1]: the protein stability index was 4.74 ± 0.24 (treatment: DMSO) and 4.64 ± 0.14 (treatment: MLN4924 1 uM, 8 h).

Regarding DSLWHRSDSAPRNKISRFQAPISA [MFF], the protein stability index (treatment: DMSO) is 3.43 ± 0.45 and the protein stability index (treatment: MLN4924 1 uM, 8 h) stood at 3.41 ± 0.19.

Take ELVSVEDLLKFEKKFQSEKAAGSV [FIS1]: the protein stability index was 3.58 ± 0.3 (treatment: DMSO) and 4.07 ± 0.35 (treatment: MLN4924 1 uM, 8 h).

Take GTPGPFTKEGGMLAYYEVCSWKGA [CHIT1]: the protein stability index came out at 2.47 ± 0.17 (treatment: DMSO) and 2.55 ± 0.55 (treatment: MLN4924 1 uM, 8 h).

SSRSTVPTPAKRRSSALWSEMLDI [NET1]: the protein stability index is 2.62 ± 0.25 (treatment: DMSO) and 2.96 ± 0.46 (treatment: MLN4924 1 uM, 8 h).

With LRSCYFSDPDCSMRPTLIDLLPTF [FBXO39], the protein stability index (treatment: DMSO) worked out at 2.46 ± 0.35 and the protein stability index (treatment: MLN4924 1 uM, 8 h) amounted to 2.2 ± 0.26.

In the case of DVNSFVTECEPSELFQLQTYSLPP [CDS1], the protein stability index came out at 3.58 ± 0.29 (treatment: DMSO) and 3.54 ± 0.35 (treatment: MLN4924 1 uM, 8 h).

In the case of LGVVYRSLSFEDELVYADDYIMDE [ESRRG], the protein stability index runs as follows: (treatment: DMSO) 2.46 ± 0.04; (treatment: MLN4924 1 uM, 8 h) 2.67 ± 0.33.

For the sequence VFSDTATPDIKSHYAFRIFDFDDD [CIB1], the protein stability index stood at 3.19 ± 0.27 (treatment: DMSO) and 3.18 ± 0.42 (treatment: MLN4924 1 uM, 8 h).

In turn, ESGKSTIVKQMKIIHEAGYSEEEC [GNAI1] returned a protein stability index (treatment: DMSO) of 5.16 ± 0.18 and a protein stability index (treatment: MLN4924 1 uM, 8 h) of 4.85 ± 0.13.

MEAADASRSNGSSPEARDARSPSG [TRIM29]: the protein stability index came to 5.29 ± 0.18 (treatment: DMSO) and 5.5 ± 0.091 (treatment: MLN4924 1 uM, 8 h).

Take DESLTDLEAQPYEAVFLRAVKLYN [P3H4]: the protein stability index reads like this: (treatment: DMSO) 2.58 ± 0.21; (treatment: MLN4924 1 uM, 8 h) 2.71 ± 0.36.

In the case of RGRASGFAGSMFGSVALGPVCPTV [KRT71], the protein stability index was 2.7 ± 0.14 (treatment: DMSO) and 2.88 ± 0.28 (treatment: MLN4924 1 uM, 8 h).

In the case of YSHLGGIDYKTTTILLDGQRVKLK [RAB40A], the protein stability index runs as follows: (treatment: DMSO) 3.12 ± 0.29; (treatment: MLN4924 1 uM, 8 h) 3.25 ± 0.23.

For AAESPDPPQSPQGASSLPTTMNYP [MAGEA3], the protein stability index reads like this: (treatment: DMSO) 5.23 ± 0.13; (treatment: MLN4924 1 uM, 8 h) 5.3 ± 0.1.

In the case of ARRDAKKLVRSPSGLRMVPEHRAF [ZFYVE21], the protein stability index (treatment: DMSO) came to 3.11 ± 0.31 and the protein stability index (treatment: MLN4924 1 uM, 8 h) stood at 3.56 ± 0.17.

Consider DAPEQRLRVMTTNIRSARGNNPNG [ELOA2], for which the protein stability index is, setting by setting: (treatment: DMSO) 4.84 ± 0.23; (treatment: MLN4924 1 uM, 8 h) 4.95 ± 0.23.

Regarding MDRFDCQYLMATFVHVYITSFIRG [CDS1], the protein stability index worked out at 3.01 ± 0.56 (treatment: DMSO) and 3.67 ± 0.73 (treatment: MLN4924 1 uM, 8 h).
